Experimental data: patent US12441790B2, “Binding proteins to the human thrombin receptor, PAR4” (MONASH UNIVERSITY, priority 2017, dated 2025)
Where a chain is given by its changes, count along the chain named. Each block holds one molecule with its values, some of them ahead of it.

Columns and labels:
[1] = tested on: human whole blood; experiment: Human whole blood thrombosis assay; format: cell-based; conditions: 10 minute endpoint; 5A.RC3 100 μg/ml, hirudin 800 U/ml
Method: Human whole blood collected in citrate (3.2%) was pre-incubated for 15 min at 37° C. with PE-conjugated anti-CD9 antibody (4 μg/mL) and an anti-fibrin antibody (5 μg/ml), and one of hirudin (800 U/ml), DMSO (1% v/v), PAR-1 antagonist E5555 (1 μM), anti-PAR4 antibody (0.2 mg/ml) or the combination of both PAR inhibitors. Whole blood was re-calcified with 5-7.5 mM CaCl2 (final concentration) to initiate coagulation, and drawn over glass microslides (1×0.1 mm internal diameter) coated with bovine type 1 collagen (250 μg/ml) at a fixed flow rate of 0.06 ml/min, resulting in a wall shear rate of 600 s^−1. Dual colour confocal fluorescence images were recorded at 488 and 561 nm excitation, collected through a 40× water immersion objective. Confocal z-stacks were continuously recorded for 2 min before modified, calcium-free Tyrode's buffer was flowed over the thrombi and z-stacks encompassing the entire height of the thrombus field were recorded over a period of 10 min. Platelet thrombi were defined using anti-CD9-PE and fibrin volume was quantified using average fluorescence of the thrombus field. Data were normalised against the hirudin baseline and expressed as a percentage of the control.
Thrombosis parameters including platelet deposition, thrombin activity, fibrin volume and ratio of fibrin per thrombus were measured in real-time over a period of 10 minutes in a whole blood thrombosis assay as described herein under conditions of coagulation.
Platelet deposition (PE-conjugated anti-CD9), thrombin activity (FRET-based thrombin probe), fibrin volume (Dylight650-conjugated anti-fibrin antibody) and the ratio of fibrin per thrombus at the 10 minute end-point is shown in FIG. 10A by confocal microscopy (to allow for volume measurements to be taken) using a Nikon Air with a 25× lens and 2× digital magnification.
The volume of human thrombi formed after 3 min was quantified by confocal microscopy in an ex vivo human whole blood thrombosis assay.

[2] = target: T1, hPAR4 peptide (Homo sapiens, UniProt Q96RI0); experiment: mAb capture SPR (Biacore, anti-mouse Fc capture); format: binding
T1 construct: host or cells: synthetic peptide
Method: (§1) Biacore analysis was performed on a Biacore T200 using two different methods either an anti-mouse Fc capture approach or using a similar method as described above using the ProteoOn system.
A series S CM5 sensor chip was activated with standard EDC/NHS amine coupling chemistry using the manufacturers recommended protocol with Goat anti-mouse IgG Fc. Anti-hPAR4 mAbs were captured at 1-2 ug/ml for 2 minutes at 10 ul/minute on flow cell 2 (FC2) and flow cell 1 (FC1) was used as a reference channel. […] Blank injections of buffer alone were also performed. All injections were performed in duplicate and in a random order. After each capture/injection/dissociation cycle the chip was regenerated with a 30 second injection of 0.1M Glycine pH2.0.
(§2) For the mAb capture method low levels of ligand mAb and analyte hPAR4 were used in an attempt to produce a 1:1 binding interaction, this method has been used successfully to measure kinetics and affinity KD's (Kamat V and Rafique A (2017) Analytical Biochemistry 530:75-86), despite using a whole IgG.
(§3) The kinetics of the binding interaction between the mAbs and hPAR4 was measured using Surface Plasmon Resonance (SPR; Biacore) by two different methods: 1. Anti-mouse Fc mAb capture method and 2. Streptavidin (SA) chip to capture biotinylated peptide. The ka(on) rate and kd(off) rates and KD were measured and fitted to a Langmuir model using the Biacore evaluation software.

[3] = target: T2, hPAR4-biotinylated peptide (Homo sapiens, UniProt Q96RI0); experiment: SA chip biotin peptide SPR (Biacore, streptavidin capture); format: binding
T2 construct: host or cells: synthetic peptide
Method: as §1
A series S sensor chip SA was conditioned using the manufacturers recommended protocol and immobilised with 1 ug/ml hPAR4-biotinylated peptide on FC2 and hPAR1-biotinylated peptide as a control onto FC1. […] Blank injections of buffer alone were also performed. All injections were performed in duplicate and in a random order. After each capture/injection/dissociation cycle the chip was regenerated with a 30 second injection of 0.1M Glycine pH2.0.
as §2, §3

[4] = target: T1, hPAR4 peptide; experiment: ELISA of purified mAbs on hPAR4 peptide; format: binding; conditions: dilutions of purified mAbs
Method: as §3
The experiment was completed with purified mAbs diluted in PBS instead of hybridoma supernatants.
The reactivity of seven purified anti-hPAR4 mAbs was analysed by ELISA (see Table 4).

[5] = tested on: human platelets; experiment: Functional screen of hybridoma supernatants by platelet aggregation assay; format: cell-based; conditions: aggregation as % of control
Method: Platelet aggregation was measured by light transmission aggregometry in a 96-well plate format. Human isolated platelets (2×10^8/ml) were pre-treated for 10 mins at 37° C. with dimethylsulfoxide (DMSO) (1% v/v), the PAR1 antagonist vorapaxar (90 nM), the anti-PAR4 antibody 5RC3 (20-100 μg/ml), or a combination of vorapaxar and 5RC3. Platelets were treated with one of thrombin (0.1 U/ml) and aggregation was analysed at 37° C. in a FLUOstar OPTIMA plate reader (BMG Labtech) using a 595 nm excitation filter, for a period of 50 min (10 read cycles with 5 min double orbital shake period between each read). Optical density was normalised against the blank (maximum) and unstimulated platelets (minimum) and expressed as % maximum.
Thrombin-induced platelet aggregation in the presence of a PAR1 antagonist (i.e. PAR4-dependent aggregation) is shown for 30 monoclonal antibody supernatants binding to human platelets. Antibody supernatant was mixed with human platelets (2×10^8 cells) at a 1:1 ratio.

T1 sequence (Q96RI0 35-54 limits assumed): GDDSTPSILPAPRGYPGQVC
T2 sequence (Q96RI0 with tags, fused parts or gaps limits assumed): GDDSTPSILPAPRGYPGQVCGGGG

Molecule: hirudin [reference compound]
fibrin volume [1]: abolished
platelet deposition [1]: continued platelet deposition
thrombin activity [1]: abolished

ka [2]: 14000 M⁻¹ s⁻¹
kd [2]: 0.00146 s⁻¹
ka [3]: 1.85e+06 M⁻¹ s⁻¹
kd [3]: 0.000667 s⁻¹
reactivity with hPAR4 peptide by ELISA [4]: least reactive
B1: 5I.RG1: anti-PAR4 monoclonal antibody, IgG3/K, SEQ ID NOs 45 and 46 (antibody, V domains shown)
VH: QVQLQQWGAGLLKPSETLSLACAISSGSFSTYFWRWIRQPPGKGLEWIGEIIHTGSTTYNPSLKSRVTISVDTSKNQLSLKLSSVTAADTAVYYCAFEYSSSGGYYYGMDVWGQGTTVTVSS
VL: DIQMTQSPSSLSASVGDRVTITCRASQSISSYLNWYQQIPGKAPNLLIYAASSLRSGVPSRFSGSGSGTDFTLTISSLQPEDFATYYCQQTYSTPLTFGGGTKVEIK
modifications: VH of 5I.RG1; VL of 5I.RG1

B2: MoB5I G1: hybridoma supernatant clone, second screening; likely parent of 5I.RG1 (antibody, V domains shown)
VH: B1 VH
VL: B1 VL
Functional screen on hybridoma supernatants [5]: Yes (+) (aggregation between 50-80% of control)

ka [2]: 58400 M⁻¹ s⁻¹
kd [2]: 0.00227 s⁻¹
ka [3]: 1.84e+06 M⁻¹ s⁻¹
kd [3]: 0.00111 s⁻¹
reactivity with hPAR4 peptide by ELISA [4]: least reactive
B3: 5H.RF2: anti-PAR4 monoclonal antibody, IgG2a/K, SEQ ID NOs 107 and 108 (antibody, V domains shown)
VH: QVQLQQWGAGLLKPSETLALTCAVYGGSLSDYYWSWIRQPPGKGLEWIGEINHSGTTNYNPSLKSRVTISVDTSKKQFSLKLSSVTAADTAVYYCAIEYSNSRGYYYGMDVWGQGTTVTVSS
VL: DIQMTQSPSSLSASAGDRITITCRASQTISNYLNWYQQKPGKAPKLLIYAASSLQSGVPSRFSGSGSGTDFTLTISSLQPEDFASYYCRQNYNTPLTFGGGTKVEIK
modifications: VH of 5H.RF2; VL of 5H.RF2

B4: MoB5H F2: hybridoma supernatant clone, second screening; likely parent of 5H.RF2 (antibody, V domains shown)
VH: B3 VH
VL: B3 VL
Functional screen on hybridoma supernatants [5]: no

B5: MoB5H H4: hybridoma supernatant clone, second screening; likely parent of 5H.RH4 (antibody, V domains shown)
VH: QVQLQQWGAGLLKPSETLSLTCAVYGGSFSNYYWSWIHQPPGKGLEWIGEINHSGSTNYNPSLKSRVTISVDTSKKQFSLNLSSVTAADTAVYYCKVEHSSSSGHYYYGMDVWGQGTTVTVSS
VL: B1 VL with S28T, S31Y, I39K, N45K, S53R, R55Q, A84T, T91S, E105G
Functional screen on hybridoma supernatants [5]: Yes (+) (aggregation between 50-80% of control)
